The results in this text go back to paper PMC12421412.

For this test, the target named is ectodomain of APP^695 (amyloid precursor protein). Description: SPR; ectodomain of APP^695 coupled to the sensor chip surface; purified SORLA ectodomains as analyte; neutral pH; data also analysed with EVILFIT.

Turning to “soluble wildtype SORLA ectodomain (Sortilin-related receptor with A-type repeats), hexa-His-tagged (from UniProt Q92673 82-2137) (domain or fragment)”, the SPR sensorgram peak (response units) turned out to be 1750 RU. The substance “soluble mutant SORLA^N1358S ectodomain, hexa-His-tagged (from UniProt Q92673 82-2137) (domain or fragment)” had an SPR sensorgram peak (response units) of 1650 RU.
